Measured values from article PMC10516925, “Determining subunit-subunit interaction from statistics of cryo-EM images: observation of nearest-neighbor coupling in a circadian clock protein complex” (Nature Communications, 2023).
Values belong to the molecule of their own block, whether it stands above or below them.

Legend:
[1] = biological target: KaiC-AA (S431A, T432A) (UniProt Q79PF4); assay: cryo-EM structure; single-particle cryo-EM of pure KaiC-AA or KaiC-EE, 0.35 ug/ul in 20 mM Tris-HCl (pH 8.0), 150 mM NaCl, 5 mM MgCl2, 0.5 mM EDTA, 1 mM ATP; incubated at 30 °C for 6 h
[2] = biological target: the molecule itself; assay: as above

stoichiometry N [1]: 6
Molecule: KaiC-AA (S431A, T432A) (from UniProt Q79PF4 14-484) (natural protein)

B1: KaiC-EE (S431E, T432E) (natural protein)
chain: EHQAIAKMRTMIEGFDDISHGGLPIGRSTLVSGTSGTGKTLFSIQFLYNGIIEFDEPGVFVTFEETPQDIIKNARSFGWDLAKLVDEGKLFILDASPDPEGQEVVGGFDLSALIERINYAIQKYRARRVSIDSVTSVFQQYDASSVVRRELFRLVARLKQIGATTVMTTERIEEYGPIARYGVEEFVSDNVVILRNVLEGERRRRTLEILKLRGTSHMKGEYPFTITDHGINIFPLGAMRLTQRSSNVRVSSGVVRLDEMCGGGFFKDSIILATGATGTGKTLLVSRFVENACANKERAILFAYEESRAQLLRNAYSWGMDFEEMERQNLLKIVCAYPESAGLEDHLQIIKSEINDFKPARIAIDSLSALARGVSNNAFRQFVIGVTGYAKQEEITGLFTNTSDQFMGAHSITDSHIEEITDTIILLQYVEIRGEMSRAINVFKMRGSWHDKAIREFMISDKGPDIKDSFRNFERIISGSPTRI
notes: source: hexamer fractions selected; not shown: His6, N-terminal, cleaved
stoichiometry N [2]: 6
